The values below come from patent US9045527 (dated 2015).

Where no end group is shown, it is not given here. A value given as a limit tells only on which side of the number the result lay.

Assay [1] concerns the target T1, CAL PDZ domain (CALP), wild type (UniProt Q9HD26 278-362). In words: fluorescence anisotropy displacement; Fig 9A; upper bound, nonspecific Rh inhibition. Background: In fluorescence polarisation assays a small probe gives low polarisation when free and higher when bound to something large.
Assay [2] deals with N1P1. Kind of assay: fluorescence anisotropy displacement; Fig 9B.
Assay [3] has as its target T1, CAL PDZ domain (CALP), wild type. In words: fluorescence anisotropy displacement; Fig 9A.
The target is the same in assay [4]. Kind of assay: fluorescence anisotropy displacement; Fig 9B.
Assay [5] deals with CALP-H301A mutant (UniProt Q9HD26 278-362). Kind of assay: fluorescence anisotropy displacement; Fig 9B.

B1: QLD^RhVTR metallopeptide (peptide)
peptide: Ac-QLD(dirhodium)VTR
modifications: also: dirhodium metal complex at Asp side-chain carboxylate
The term Ki denotes a measure of affinity in units of concentration, obtained from inhibition or displacement. A low value points to higher affinity. B1: in assay [1], the affinity, expressed as Ki, was 10 µM.

B2: VQDTRL (peptide)
peptide: Ac-VQDTRL-OH
B2 showed an inhibition constant (Ki) in assay [2] of 700 nM.

B3: EWPTSII (peptide)
peptide: Ac-EWPTSII-OH
Molecule B3 gave a Ki in assay [2] above 500000 nM.

B4: E(Rh)WPTSII (peptide)
peptide: Ac-E(dirhodium)WPTSII-OH
modifications: also: dirhodium metal complex at Glu side chain
In turn, B4 registered an inhibition constant (Ki) in assay [2] above 50000 nM.

B5: QLDVTR peptide (scrambled control sequence) (peptide)
peptide: Ac-QLDVTR
Molecule B5 displayed a Ki in assay [3] above 500 µM.

B6: E^RhWPTSII metallopeptide (peptide)
peptide: Ac-E(dirhodium)WPTSII-OH
modifications: also: dirhodium metal complex at Glu side chain
B6 had an inhibition constant Ki in assay [4] of 1300 nM.

B7: E(Rh)VQSTRL (peptide)
peptide: Ac-E(dirhodium)VQSTRL-OH
modifications: also: dirhodium metal complex at Glu side-chain carboxylate
For the molecule B7, in assay [2], the inhibition constant Ki worked out at 32 nM.

B8: E^RhVQSTRL metallopeptide (peptide)
peptide: Ac-E(dirhodium)VQSTRL-OH
modifications: also: dirhodium metal complex at Glu side-chain carboxylate
On to B8, for which the inhibition constant (Ki) was found to be 11.3 µM in assay [5] and 430 nM in assay [4].

B9: EVQSTRL (peptide)
peptide: Ac-EVQSTRL-OH
In the case of B9, the inhibition constant Ki in assay [2] amounted to 710 nM.

B10: VQD^RhTRL metallopeptide (peptide)
peptide: Ac-VQD(dirhodium)TRL-OH
modifications: also: dirhodium metal complex at Asp side-chain carboxylate
Molecule B10 showed an inhibitory constant (Ki) in assay [4] of around 49000 nM.
